Publication doi:10.1101/2020.12.31.424868 (bioRxiv, 2020)

Target: head domain of VN/04 HA (A/Vietnam/1203/2004 H5N1), monomeric (Influenza A virus A/Vietnam/1203/2004 …, strain)
Assay: crystal structure

B1: H5.31 Fab (recombinant) (Fab, V domains shown)
VH: EVQLVQSGGGLVQPGGSLRLSCEASRFTSSSYWITWVRQAPGKGLEWVANIKQDGSEKYFVDSVKGRFTISRDNASNSLYLQMSSLRAEDTAVYYCARGFLERLLLGRQGAYYYGMDVWGQGTTVTVSS
VL: DIVMTQSPFSLSASVGDRVTMTCRASQSISSSLNWYQQKPGKAPKLLIYAASNLQSGVPSRFSGSGSGTDFTLTISSLQPEDFATYYCQQSYTMPPELTFGGGTKVEIK
Q: Does B1 bind?
A: Result: binds
